The values that follow come from the DeepSol protein solubility set.

This data set in a line: soluble on expression in E. coli; label from the status in PepcDB or PDB records.
“MSLNRIILIGNGFDLAHGLPTRYEDFINWYWEKRVDSFIGNLTPISEDCLCSIKITSDNYNRCWNVFAFCLPKFFNKPSGKEIIDSIANDSKSFELSLSPFFFNICTCIETKGWVDIEKEYYDLLRNAIINPDNCNYTISEINKQLHYIQGLLAQYLSSITTDNIKCNKEIQRQIYGNIRKDDVSISQLQVYYDYVDHLIQQDNVYQQLLCRYGYESSDRHFMAEDIKQLRKQFVGSSEIEEIYLKDLIFPENIVLLNFNYTEVADKYGCLKVASTNHIHGDLNNPDSIIFGYGDELDEDYRDFLKQSDNECLRNIKSIKYLESGKYRNLLQFIESAPYQVYIMGHSCGNSDRTLLNTLFEHKNCVSIKPYYYQKDDGSDNYLEIAQNICRNFTDMKLMRDRVVNKMFCEPLPQYIKEGHHHHHH”: the “soluble on expression in E. coli” value is “soluble”.

As to “MSLNRIILLDRDGVINTDSINYIKNVDELIIIPDSIIAIARLSAAGYKIGVATNQSGVSRGLYSEDDLSAIHCKLREVLAEAGGQIDALEYCIHLPEDNCFCRKPQPGMLKALAEKLNCSLDSVPFVGDRVSDIQAALAVGAQPIIVLSNMTDMSELAQYPKVPIYNSLLQYVNQLLLEGHHHHHH”, the “soluble on expression in E. coli” value is on record as “soluble”.

Consider “MSLNRKTPKTTDGLMRHIRDNKGIQINGSTEKNQLRNIGYFHGFKGYNFFLNKEEELNFEKFSELHALYSFDTEIKNLFYKHVMFCETAIKNRLLEIVCVNSGFDLDSLFQKSLTYYKSYSPGSSKYKKHLKNTTRLRRDIYDMIHEHCNSKPYIYHYIHQDRTVPLYAVFELFTLGNLVFFTRCMSQNLNIEAQKQLKLYSPAFDQSKDILGDIIDCMKGLRNAIAHNGVLYDCRFKTGETSNRLKEYLAVKMDIHNLDFDRIIDYLILLILICSGLSYSKAELQRIIRQFEQNLDFLRSKISESTYDKIIGVRARPKLRSLKNFINNLDFYLKTDEGHHHHHH”, for which the “soluble on expression in E. coli” value is “soluble”.

For “MSLNSIQHIRKAEIHVHLEATIGPDLCRKFAKRNKVTLTDDIFGSQYAYAWDDFYDFIKKYDLVTSVIHTPEDYRELTYSYLKECAKNNVLYVEAMISSTHAKLKGMSYHSFLEGVAEGSKQAEDEFGIISKYIMNGIRHLGPESVQKTAEEVLEFPHKDLVGFGLAGDELHFPPKLFTKTFDMLKEANFPITVHAGEWDGPENIRHAINLLHPTRLGHGVRSIEDPDLVKEIIDKDIILETCPTSNIATKIYEDYKSHPVKTLFDQGVKVTVNSDDPPFFNATIQGEYKVMEDLGLNEKELTSLTHNAIKYSFCDEENKNELLAKLNEGHHHHHH”, the “soluble on expression in E. coli” value is recorded as “soluble”.

For “MSLNTGINCPFDCGLCARHRSHTNLLNIVLTNRCNLSCWYCFFYAREGEPVYEPTLEQIRMMLRNAKKENPIGANAVQFTGGEPTLRDDLIEIIKIAKEEGYDHVQLNTDGIRLAFEPELVKKIREAGVNTLYLSYDGMTPQTNWKNHWEIPLIFENVRKAGGPGIVLVPTLIRNVNDHEAGAIINFGLNHLDIVRGVNFQPISLVGRVPKKERQRFRITIAGAIKKIEEQTNGAISRDDWYPIPIAGYIARFFEAFTGKHYYMTSHYACGAATYVFLDKEEKKVIPIPRFIDVEGFVEFLVEKAEEIERARFKGLAKLKAIGETVFIKFKQFYDEKYAPKGLDVLGLIKNAFMHGNYDALGQFHTKTLFLGMMHFMDEYNYDVERVERCVIHYAMPDGRIVPFCTFNVIPEIYRDKVQRQFSYSWEEWKKLHPDWDYKKDKYFRTREFVEKMKNSELYRKTYIDIVNYFEEGHHHHHH”, the “soluble on expression in E. coli” value is given as “soluble”.

As to “MSLNVLHVASECNPFFKTGGLADVLGSLPKALIKQGINVSVILPKYGHLSDEWQNQLTLKKSFTVSVTWRNQYCGLEQFVDQGVTYYFIDNEYYFKRERLYGYLDEAERFTFFNHAVLSSLPFLDESPDLIHCHDWQSGLIPAYMKTGSVENPVPTVFTIHNLRYQGAFPPDVFRELLHFAPEHFAGLEMDGAINFLKGALVHSDRVTTVSPTYAQEIQTPAFGEGLHGLLHQERGKTRGILNGIDLEDFDPKTDPHVTYPYKHNQMEKRKNKQVIQRLFELPERKDIPLIAMVSRLVEEKGVPLLTQIAGELVTTENVQLAILGTGDPSLEDQLHHLASLHPHQISFKCVFAEPLARKLYAGADLFIMPSRFEPCGLSQMISLRYETVPIVRETGGLYDTIQSYNEEIGEGNGFSFTHYNAHDFLYTIKRALRFYRTEKEWENLLLNIYSSEVGWDVSAKQYTALYEEILGKRKVEAEGHHHHHH”, the “soluble on expression in E. coli” value is on record as “not soluble”.

For “MSLPAKRKLTMRHIRQMLRLAGSGTSSREIAVMLGIARSTVQDNLKRAAMAGLSWALASGLTDDVLEAKLFVHPGVKRGQRLRQEPDWGPLSIELKKPGVTLLILWEEYRSAHPDGYGYSRFCELFRGFEKRLSPTMRQEHIAGDKVFVDYSGKKVPIVDRKTGEIREAELFLGVLGASSYCTRGRSVHLGELLRRAWIFQHLGNREGHHHHHH”, the “soluble on expression in E. coli” value is given as “not soluble”.

For “MSLPEYDPDKYRGIDVSYVNICMRRAWLSLHEIFYVRDSYYVSDGAYLADINRKGLPISTGRSRMDNVQIHKDFIMVHEYKRGYKMIKADKMQILHYMYIIKLKENLDIKGKLHFLGSKKVVDIELNDENLNELYKSYENIDKLKDMAKPPEPVRNYFCVHGCSYSDFCWCEGHHHHHH”, the “soluble on expression in E. coli” value is “soluble”.

Consider “MSLPHLSLADARNLHLAAQGLLNKPRRRASLEDIPATISRMSLLQIDTINIVARSPYLVLFSRLGNYPAQWLDESLARGELMEYWAHEACFMPRSDFRLIRHRMLAPEKMGWKYKDAWMQEHEAEIAQLIQHIHDKGPVRSADFEHPRKGASGWWEWKPHKRHLEGLFTAGKVMVIERRNFQRVYDLTHRVMPDWDDERDLVSQTEAEIIMLDNSARSLGIFREQWLADYYRLKRPALAAWREARAEQQQIIAVHVEKLGNLWLHADLLPLLERALAGKLTATHSAVLSPFDPVVWDRKRAEQLFDFSYRLECYTPAPKRQYGYFVLPLLHRGQLVGRMDAKMHRQTGILEVISLWLQEGIKPTTMLQKGLRQAITDFASWQQATRVTLGRCPQGLFTDCRTGWEIDPVA”, for which the “soluble on expression in E. coli” value was “not soluble”.

Regarding “MSLPNRLLITNASIAKMDEPDDGYGLMMHAALLIQDEKIEWLGSVSDIPAGLGDPEELDACGRLLTPALIDCHTHIVHGGNRAREFEMRLEGASYEEIARAGGGIISTVTATRETDEAALLQDALKRADSLIAEGVSLIEIKSGYGLDVETELKMLRVARAIERERSVRVVTSFLGAHAVPKGADADFYIDKVCIPALEAAHKEGLVDAVDGFCEGIAFDTVQMGRLFERARQLDIPVKLHAEQLSNIGGTKLAASYNALSVDHVEYADKTDIAAMAKAGSVAVLLPGAFYTLHETQKPLVEAFRSESVPMAVATDWNPGSSPMGSLLLAMNMSCTLFGLTPVEALAGTTRNAARALGLKDCGIVAPGKRADLAIWDVLEPAELSYRFGVNPLHRRIFGGRLEGHHHHHH”, the “soluble on expression in E. coli” value is recorded as “soluble”.

As for “MSLQDIKDITLRQFGTGVSNLNEVAQKVKEDLGFTLTMTALDSDAVTQRAATQPDSFDIADIEYWICKKVWPTGNLQAMDTSKIKNYDKIVGIFRSGKLTPESTIAQGTAPHTVGFTSGPGGTDFVQEESGWMTLIPTIYNADTLGIRPDLIGRPIESWTELLNPEFKGKASILDISSIGIMDAAMVCEAMGEITYGDKGNMTREEIDRTMAIFTEAKKAGQFRAFWKTFDESVNLMASGEVVIQSMWSPAITAVKSRGIPCVYQPLREGYRSWGGGIGLSARLDGLALEAAYEYINWYLSGWVGGFLMRQGYYSAVPETSKEFMSENEWGYWFEGKPATDTITNPQGQAMAQAGEVRDGGSFEERMGRVACWNSVMDENQYMVRKWNEFIAAEGHHHHHH”, the “soluble on expression in E. coli” value is recorded as “not soluble”.

Take “MSLQIDEVSKKLNISKSMIRYYEEKGLINISRNQNNYREFNQTVYTTLKLIKDLKRLNLSLEEIKYIVNLFNKPTSKECNIQSTKYLDRIIKDYKRSINEQINILNRLEQVKELSQDMKFEENKTEILNMLAGVKEYDEGHHHHHH”: the “soluble on expression in E. coli” value is given as “not soluble”.

Consider “MSLQIKFWPQDLKLAHTWTIASSVTSGSDVTSVGIVQLTDRDGTVGLGEAAPARRYNESTPGSLDFIAKVDATKLSFDNIEASMKYVESLASGQFAAKSAINVALLDGAARKAGKPIYDLLGLGFRNNHHVTSFSIGIDKADVIRKKVLAAEQYPVLKLKVGAADDKANLAALREAAPQKWVRVDANEGWKTKEHALEMIEWLAQDKFIQYIEQPMPADSNPKDIAWLKARSPLPLFGDESYHTAKDVDHCAECYHGVNVKLCKTGGISNAYEALQVARKAGLKTMIGCMIETSILISAAAHLAELCDYLDIDGNLLTTNDPYLGVTAEKGLLSFASAPEKLGLRVRAKEGHHHHHH”, for which the “soluble on expression in E. coli” value is “soluble”.

Consider “MSLQIKVSQFGLNLAHAWATAASSAKKSRIVTFVKLTSSDGAFGFGESAPSSRYGETLETVTAFLAKIDPKQLSFDDVPGSMAYLDKLSSGDFAAKAAVNIALWDGAGKKARKPIYDLLGLGFTENKHITSYTIGIDAPEIIRQKVLEAEQYPVLKLKVGDKNDRETMAILRSIAPAKTVRIDGNEGWKTKEEALKNIEWFAQDKNIEFVEQPMPADSNPKDLAWLKERSPLPLYADESFFAVADVSLCVDCFHGVNVKLVKTAGISGAYEALQAAKKAGLKRMIGCMVESSVLIGAGAHLAELADHLDIDTNLLITNDPFQGTTAEKGIISFAKASEPCGLRVKATPSFVMEGHHHHHH”, for which the “soluble on expression in E. coli” value was “soluble”.

Consider “MSLQILTRKMPGQFKVGCMDLMIEEAAGSGLFMRLFFPTDSEITGPSSLPVWIPRPEYAYGVGEYLGHSPHQMDLISSLVIGDKRVDCIDNAQLSTKSDKWPVLVFSHGLGGSRTFYSTYCTSLASHGYVVAAVEHRDSSACWTYKLVEKNGTLVEKPMKIKLVDRNDKDQFKIRNEQVGKRAEECAKAVKILEQLDSGNVKDKVIIGNNANLEFFKNKLLTTTASIIGHSFGGATSIASSSSDFQKAIVLDGWMYPLDQNQQEQAKQPIMFLNVGDWQWNENLEVMRKILPNNEGNILLTLSGAVHQSFTDFPFVFPNWLAKQFGVHGPTEPYLCMQSAIELTLSFLKDGKEGHHHHHH”, for which the “soluble on expression in E. coli” value is recorded as “not soluble”.

“MSLQKEEILKLPISYKNIRLIRLNLPQKEQFVSGIGVRNSRKALIIEWEDDNGTKGYGECSCRPDPYYSDEFIEGAIALVNQFIVPFLKQNQTFGDLLKLLDKIRGWNFTKAAVEMAALQVIEQNTGKSPFQLLQNKPLAHVPVGISLGLYTDVDRMKKVVKNALETGYKRLKFKISPKVRVDFFEEINPMLFEADTFVSFDANGSFGENDLDIFHYFANTYQSMIEQPFAPTRFDILSKVKKEHPEIYICYDEEIKSIGDLIKLHHLGMLDEVNLKVGRVGGVMKSIEIIQYCAEHNIPCWIGGMFETGIGRTLNLRMASYLPNARAHDLSPSDRYFLEDIVQPNVQMNNGLVNMESLKNCTIQPNLIDKYTIDQKTLTRICEGHHHHHH”: the “soluble on expression in E. coli” value is “soluble”.

Consider “MSLQKLAFSYVRFSSLKQRHGDSLKRQTDMVANWLLANPEYKLSGETSYQDLGKSGFSGAHLDNAFGRLLAAIENGAIPKGSAILIEQIDRAGRMEPMEMLPLLSRIVNAGVDLVTLDDGITYDRASVNSNHLFLLVAKVQQAHQYSDSLSRRLRAAYQTKRAKAAAGEGATRRMPLWIRDGKLRDDIAPFVTQVFEDYAAGIGERRILGRLKGQHPDFETISPSTFRRWLRNPVAVGRWNDIEDVWPAVVSKELWFRVQKRLTDGVKPKAASSKYLLSGLVKCARCGKNYCVGGQKGALTMLCVSRHRFGSGAGGCTNKRSIPYAVFDFIRSQTAHAALVRASQSQNLTASEKRQIEIDGELIELRKQSSHAAEGLVRYGMVKEITDVLDRVTDQIDRLEKERVMLQAVPAPATLDDMIDVENDLLDDDIVKLNALLQGVGYEMVVDDRTIVVCEASVFSTLQSQTYRYIGADRVTGTYKVTANDEVLHHLPNLDSKVQQDEYAEFLKKEARYESGELKRDEFRFNLETGEINREGHHHHHH”, for which the “soluble on expression in E. coli” value was “not soluble”.
